In data set [1] the target is αvβ3 integrin (Homo sapiens, UniProt P05106+P06756). Kind of data set: Inhibition of FITC-Echistatin binding to αvβ3-K562 cells (flow cytometry). On the set-up: expressed in transfected cells; host or cells: K562 (gift of Dr. Yoshikazu Takada, UC Davis). As to conditions: for binding affinity compared with LXW7 or the Arg parent, in words: LXW1-8 series. As to the method:
The samples were analyzed with Coulter XL-MCL flow cytometry. The histogram and mean fluorescence intensity (MFI) were determined. The apparent Kd, IC50 were calculated using Graph Prism software (≦www.graphpad.com≧).
(In flow cytometry, cells or beads pass a laser one at a time.)

Another data set relates to U-87 MG xenograft. Briefly: In vivo and ex vivo near infra red fluorescent imaging, U-87 MG xenograft. On the set-up: species or system nude mice. As to conditions: complex of Streptavidin-Cy5.5 with biotinylated peptide, 6 hrs after tail vein injection. As to the method:
Animal studies were performed according to a protocol approved by IACUC of the University of California, Davis.
Animals were placed on a sheet of transparency in different position. […] Images were captured with a CCD camera set at F stop=0, FOV=150, and FP=0. Six hours post injection of imaging complex, the mice were conducted in vivo imaging, then were sacrificed and organs were excised for ex vivo imaging.

For data set [2], the target named is T1, αvβ3 integrin (human, UniProt P06756 31-1048; P05106 27-788).
T1 construct: whole, on cells; Same entry used for αvβ3-K562, U-87 MG and A375M cells; also called αvβ3-K562; αvβ3 transfected K562 cells
T1 sequence (P06756 31-1048, chain 1 of 2): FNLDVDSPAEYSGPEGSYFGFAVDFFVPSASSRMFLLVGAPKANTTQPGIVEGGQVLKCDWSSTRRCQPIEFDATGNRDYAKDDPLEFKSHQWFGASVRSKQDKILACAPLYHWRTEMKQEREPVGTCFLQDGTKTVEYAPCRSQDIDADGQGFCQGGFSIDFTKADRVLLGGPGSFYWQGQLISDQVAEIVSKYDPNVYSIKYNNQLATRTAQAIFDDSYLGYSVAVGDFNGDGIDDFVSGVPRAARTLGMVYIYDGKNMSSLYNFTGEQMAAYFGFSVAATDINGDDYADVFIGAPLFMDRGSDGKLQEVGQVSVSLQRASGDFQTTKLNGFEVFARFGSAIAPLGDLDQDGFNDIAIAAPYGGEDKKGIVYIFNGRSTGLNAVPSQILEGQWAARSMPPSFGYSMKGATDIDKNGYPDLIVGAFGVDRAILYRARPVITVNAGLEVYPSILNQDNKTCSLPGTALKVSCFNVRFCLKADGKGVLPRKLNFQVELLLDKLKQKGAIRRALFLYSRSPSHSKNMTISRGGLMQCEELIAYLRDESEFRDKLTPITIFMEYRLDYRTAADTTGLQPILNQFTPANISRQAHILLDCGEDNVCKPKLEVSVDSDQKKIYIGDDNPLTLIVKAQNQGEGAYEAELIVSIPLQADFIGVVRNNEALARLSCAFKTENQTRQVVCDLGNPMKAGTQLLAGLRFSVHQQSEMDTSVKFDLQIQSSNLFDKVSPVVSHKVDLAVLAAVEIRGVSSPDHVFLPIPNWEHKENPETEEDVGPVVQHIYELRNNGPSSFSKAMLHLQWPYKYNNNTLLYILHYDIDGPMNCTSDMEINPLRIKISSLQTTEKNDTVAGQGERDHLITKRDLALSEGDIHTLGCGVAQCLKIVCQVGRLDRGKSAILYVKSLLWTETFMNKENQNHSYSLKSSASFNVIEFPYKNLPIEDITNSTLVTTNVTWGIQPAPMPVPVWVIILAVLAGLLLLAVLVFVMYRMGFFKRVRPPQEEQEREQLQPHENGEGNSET
T1 sequence (P05106 27-788, chain 2 of 2): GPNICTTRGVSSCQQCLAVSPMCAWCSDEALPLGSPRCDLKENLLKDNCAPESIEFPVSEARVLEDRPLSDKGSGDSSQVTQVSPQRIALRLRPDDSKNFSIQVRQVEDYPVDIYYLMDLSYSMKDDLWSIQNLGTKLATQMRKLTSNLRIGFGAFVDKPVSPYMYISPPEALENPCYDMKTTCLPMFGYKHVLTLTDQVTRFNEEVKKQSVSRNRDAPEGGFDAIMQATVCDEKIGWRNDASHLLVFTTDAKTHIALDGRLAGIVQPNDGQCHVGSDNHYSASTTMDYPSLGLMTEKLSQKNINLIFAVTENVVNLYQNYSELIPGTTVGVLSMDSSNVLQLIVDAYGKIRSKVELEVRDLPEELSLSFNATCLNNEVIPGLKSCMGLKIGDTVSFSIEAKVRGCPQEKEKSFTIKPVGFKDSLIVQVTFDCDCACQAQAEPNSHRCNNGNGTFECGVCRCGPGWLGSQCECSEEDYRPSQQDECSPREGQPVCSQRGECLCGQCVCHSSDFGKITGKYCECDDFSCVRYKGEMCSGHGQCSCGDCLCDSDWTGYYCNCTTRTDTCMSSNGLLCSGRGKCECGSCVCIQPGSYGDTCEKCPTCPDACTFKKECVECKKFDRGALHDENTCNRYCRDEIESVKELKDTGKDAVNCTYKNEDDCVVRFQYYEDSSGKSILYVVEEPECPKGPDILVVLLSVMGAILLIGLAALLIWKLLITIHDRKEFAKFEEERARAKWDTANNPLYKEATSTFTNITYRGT
Kind of data set: flow cytometry, competition with biotinylated LXW7 on αvβ3-K562 cells; +++ = IC50 <1 µM.

Data set [3] deals with T1, αvβ3 integrin. Briefly: flow cytometry, competition with biotinylated LXW7 on αvβ3-K562 cells; + = IC50 >10 µM.
Where [4] appears, read: LXW1-8: inhibition of binding of FITC-Echistatin against αvβ3-K562, class symbols, read-out: IC50.

Read-outs that look alike come from different tables or passages of the source. Numbered stars: 1 amine (or outer) side, 2 acyl side, 3 side chain; on linkers, the order of the positions; unused ones are H or OH. Bridge positions count the residues as written; N and C are the ends. Square brackets hold non-standard residues; d marks the D form. Primed or numbered codes have the meaning given here. Ends that are not written are not given here. Peptide text beside a SMILES is read from it. * marks the point of attachment. Ebes(3) = 2,2'-ethylenedioxy bis(ethylamine) monosuccinamide, NCCOCCOCCNC(=O)CCC(=O)*; N(CH2CH2CO)Gly = O=C(CN(CCC(=O)[*:3])[*:1])[*:2]; Pro(5R-Ph) = O=C(O)[C@@H]1CC[C@H](c2ccccc2)N1; dAla(4-thiazolyl) = N[C@H](Cc1cscn1)C(=O)O; NMeR = CN[C@@H](CCCNC(=N)N)C(=O)O; d(αMeV) = CC(C)[C@@](C)(N)C(=O)O; dCit = NC(=O)NCCC[C@@H](N)C(=O)O; Isobutyryl = CC(C)C(=O)* Where only a bound is given, the exact number is not on record here.

The results in this text go back to US9073974B2, “RGD-containing cyclic peptides” (The Regents of the University of California, priority 2009, dated 2015).

Chain of αvβ3 integrin (Homo sapiens, UniProt P05106+P06756) (P06756 31-889 limits assumed): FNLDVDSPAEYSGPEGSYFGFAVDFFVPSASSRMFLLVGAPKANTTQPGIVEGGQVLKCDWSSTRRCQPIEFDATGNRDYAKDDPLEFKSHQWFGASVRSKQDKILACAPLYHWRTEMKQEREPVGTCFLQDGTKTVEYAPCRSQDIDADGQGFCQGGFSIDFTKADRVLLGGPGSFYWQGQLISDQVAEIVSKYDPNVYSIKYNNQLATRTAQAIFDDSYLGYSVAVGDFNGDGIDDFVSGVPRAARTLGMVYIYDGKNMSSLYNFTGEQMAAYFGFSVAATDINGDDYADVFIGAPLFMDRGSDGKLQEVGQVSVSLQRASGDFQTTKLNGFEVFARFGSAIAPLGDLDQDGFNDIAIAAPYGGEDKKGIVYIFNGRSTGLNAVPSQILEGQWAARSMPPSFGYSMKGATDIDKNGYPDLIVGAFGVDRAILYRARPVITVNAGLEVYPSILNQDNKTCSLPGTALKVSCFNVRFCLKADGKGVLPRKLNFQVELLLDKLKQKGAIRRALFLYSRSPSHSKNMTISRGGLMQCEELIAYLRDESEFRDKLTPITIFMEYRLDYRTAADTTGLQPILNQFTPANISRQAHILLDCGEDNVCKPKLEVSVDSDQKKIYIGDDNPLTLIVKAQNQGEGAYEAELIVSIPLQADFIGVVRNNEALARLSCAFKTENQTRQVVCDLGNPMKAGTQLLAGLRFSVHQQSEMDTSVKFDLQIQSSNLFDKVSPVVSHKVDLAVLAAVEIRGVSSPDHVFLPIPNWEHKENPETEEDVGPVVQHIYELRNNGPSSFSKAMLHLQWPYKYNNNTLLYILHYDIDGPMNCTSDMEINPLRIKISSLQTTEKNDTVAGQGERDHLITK
Chain of αvβ3 integrin (Homo sapiens, UniProt P05106+P06756) (P06756 891-1048 partner limits assumed): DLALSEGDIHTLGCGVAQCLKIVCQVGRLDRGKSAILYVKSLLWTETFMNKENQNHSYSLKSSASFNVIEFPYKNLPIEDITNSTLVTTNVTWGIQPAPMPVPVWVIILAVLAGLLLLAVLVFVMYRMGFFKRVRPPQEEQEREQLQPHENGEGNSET
Chain of αvβ3 integrin (Homo sapiens, UniProt P05106+P06756) (P05106 27-788): as the sequence (P05106 27-788, chain 2 of 2) above

In the case of `N=C(N)NCCC[C@@H]1NC(=O)CNC(=O)[C@H](N)CSSC[C@H](C(N)=O)NC(=O)[C@@H](Cc2ccccc2)NC(=O)[C@@H](CO)NC(=O)[C@H](CC(=O)O)NC(=O)CNC1=O` [LXW1, cGRGDsfc] (H-[dC]GRGD[dS][dF][dC]-NH2; disulfide 1-8), the IC50 (commonly the point on the concentration scale where inhibition reaches its midpoint) at αvβ3 integrin [1] (setting [4]) was 1 to 10 µM.
Take `N=C(N)NCCC[C@@H]1NC(=O)CNC(=O)[C@H](N)CSSC[C@H](C(N)=O)NC(=O)[C@@H](Cc2ccccc2)NC(=O)[C@@H](CC(=O)O)NC(=O)[C@H](CC(=O)O)NC(=O)CNC1=O` [LXW2, cGRGDdfc] (H-[dC]GRGD[dD][dF][dC]-NH2; disulfide 1-8): the IC50 on αvβ3 integrin [1] (setting [4]) was in the range of 1 to 10 µM.
In the case of `N=C(N)NCCC[C@@H]1NC(=O)CNC(=O)[C@H](N)CSSC[C@H](C(N)=O)NC(=O)[C@@H](CCC(=O)O)NC(=O)[C@@H](CO)NC(=O)[C@H](CC(=O)O)NC(=O)CNC1=O` [LXW3, cGRGDsec] (H-[dC]GRGD[dS][dE][dC]-NH2; disulfide 1-8), at αvβ3 integrin [1] (setting [4]), the IC50 was less than 1 µM.
Consider `NCCCC[C@@H]1NC(=O)CNC(=O)[C@H](N)CSSC[C@H](C(N)=O)NC(=O)[C@@H](CCC(=O)O)NC(=O)[C@@H](CO)NC(=O)[C@H](CC(=O)O)NC(=O)CNC1=O` [LXW4, cGKGDsec] (H-[dC]GKGD[dS][dE][dC]-NH2; disulfide 1-8), for which the “binding affinity compared with LXW7 or the Arg parent, in words” value at αvβ3 integrin [1] is given as “decreased the affinity”.
With `N=C(N)NCCC[C@@H]1NC(=O)CNC(=O)[C@H](N)CSSC[C@H](C(N)=O)NC(=O)[C@@H](CO)NC(=O)[C@@H](CC(=O)O)NC(=O)[C@H](CC(=O)O)NC(=O)CNC1=O` [LXW5, cGRGDdsc] (H-[dC]GRGD[dD][dS][dC]-NH2; disulfide 1-8), at αvβ3 integrin [1] (setting [4]), the IC50 is 1 to 10 µM.
Regarding `NCCCC[C@@H]1NC(=O)CNC(=O)[C@H](N)CSSC[C@H](C(N)=O)NC(=O)[C@@H](CO)NC(=O)[C@@H](CC(=O)O)NC(=O)[C@H](CC(=O)O)NC(=O)CNC1=O` [LXW6, cGKGDdsc] (H-[dC]GKGD[dD][dS][dC]-NH2; disulfide 1-8), the “binding affinity compared with LXW7 or the Arg parent, in words” value at αvβ3 integrin [1] is given as “decreased the affinity”.
As to `CC(C)[C@H]1NC(=O)[C@@H](CC(=O)O)NC(=O)[C@H](CC(=O)O)NC(=O)CNC(=O)[C@H](CCCCN)NC(=O)CNC(=O)[C@H](N)CSSC[C@H](C(N)=O)NC1=O` [LXW8, cGKGDdvc] (H-[dC]GKGD[dD][dV][dC]-NH2; disulfide 1-8), at αvβ3 integrin [1], the “binding affinity compared with LXW7 or the Arg parent, in words” value is listed as “decreased the affinity”.
For the molecule `N=C(N)NCCC[C@@H]1NC(=O)[C@H](CCCCN)NC(=O)[C@@H](Cc2ccccc2)NC(=O)[C@H](CC(=O)O)NC(=O)CNC1=O` [cyclo (RGDfK), cyclo(RGDfK)], in the data set with U-87 MG xenograft, the “liver uptake, ex vivo imaging” value was “reverse” and the “tumor uptake, ex vivo imaging” value is given as “reverse”.
For the molecule `N=C(N)NCCC[C@@H]1NC(=O)[C@H](CCCCNC(=O)CCC(=O)NCCOCCOCCNC(=O)CCC(=O)N[C@@H](CCCCNC(=O)CCCC[C@@H]2SC[C@@H]3NC(=O)N[C@@H]32)C(N)=O)NC(=O)[C@@H](Cc2ccccc2)NC(=O)[C@H](CC(=O)O)NC(=O)CNC1=O` [cyclo (RGDfK)-Bio, Biotinylated Cyclo(RGDfK), reference compound], the IC50 on αvβ3 integrin [1] (biotinylated peptides, read-out: IC50 (μM) Inhibit FITC-Echistatin binding with αvβ3-K562) stood at 1.37 ± 0.2 µM.
With `N=C(N)NCCC[C@@H]1NC(=O)[C@H](CCCCN)NC(=O)[C@@H](Cc2ccc(O)cc2)NC(=O)[C@H](CC(=O)O)NC(=O)CNC1=O` [cyclo (RGDyK), cyclo(RGDyK)], in the data set on U-87 MG xenograft, the “liver uptake, ex vivo imaging” value was “reverse” and the “tumor uptake, ex vivo imaging” value is given as “reverse”.
As to `N=C(N)NCCC[C@@H]1NC(=O)[C@H](CCC(=O)O)NC(=O)[C@@H](Cc2ccccc2)NC(=O)[C@H](CC(=O)O)NC(=O)CNC1=O` [cyclo(RGDfE)], in the data set on U-87 MG xenograft, the “liver uptake, ex vivo imaging” value was “reverse” and the “tumor uptake, ex vivo imaging” value is listed as “reverse”.
With {biphenyl‑4‑carbonyl}-[dC]GRGD[dD][dV][dC]-NH2 (disulfide 1-8) [LXW84], the IC50 with αvβ3 integrin [2] was less than 1000 nM.

B1: LXW53 (peptide)
peptide: [dC]G[NMeR]GD[dD][dV][dC]-NH2
modifications: disulfide 1-8; N-terminus assumed
SMILES: CC(C)[C@H]1NC(=O)[C@@H](CC(=O)O)NC(=O)[C@H](CC(=O)O)NC(=O)CNC(=O)[C@H](CCCNC(=N)N)N(C)C(=O)CNC(=O)[C@H](N)CSSC[C@H](C(N)=O)NC1=O
On to B1, for which the IC50 with αvβ3 integrin [2] was less than 1000 nM.
Take {4‑(trifluoromethyl)benzoyl}-[dC]GRGD[dD][dV][dC]-NH2 (disulfide 1-8) [LXW85]: the IC50 in the data set with αvβ3 integrin [2] is less than 1000 nM.

B2: LXW72 (peptide)
peptide: [dC]GRGD[N(CH2CH2CO)Gly][Pro(5R-Ph)][dC]-NH2
modifications: disulfide 1-8; N-terminus assumed
SMILES: N=C(N)NCCC[C@@H]1NC(=O)CNC(=O)[C@H](N)CSSC[C@H](C(N)=O)NC(=O)[C@@H]2CC[C@H](c3ccccc3)N2C(=O)CN(CCC(=O)O)C(=O)[C@H](CC(=O)O)NC(=O)CNC1=O
notes: also called cGRGD-NGlu-Ppca-c
Regarding B2, the IC50 with αvβ3 integrin [3] was greater than 10 µM.
With {3,5‑dihydroxy benzoyl}-[dC]GRGD[dD][dV][dC]-NH2 (disulfide 1-8) [LXW83], the IC50 in the data set with αvβ3 integrin [2] was less than 1000 nM.

B3: LXW68 (peptide)
peptide: [dC]GRGD[dD][dW][dC]-NH2
modifications: disulfide 1-8; N-terminus assumed
SMILES: N=C(N)NCCC[C@@H]1NC(=O)CNC(=O)[C@H](N)CSSC[C@H](C(N)=O)NC(=O)[C@@H](Cc2c[nH]c3ccccc23)NC(=O)[C@@H](CC(=O)O)NC(=O)[C@H](CC(=O)O)NC(=O)CNC1=O
Regarding B3, the IC50 with αvβ3 integrin [2] is less than 1000 nM.
{3‑phenyl propionyl}-[dC]GRGD[dD][dV][dC]-NH2 (disulfide 1-8) [LXW80] came in with an IC50 in the data set with αvβ3 integrin [2] of less than 1000 nM.

B4: LXW76 (peptide)
peptide: Isobutyryl-[dC]GRGD[dD][dV][dC]-NH2
modifications: disulfide 1-8
SMILES: CC(C)C(=O)N[C@@H]1CSSC[C@H](C(N)=O)NC(=O)[C@@H](C(C)C)NC(=O)[C@@H](CC(=O)O)NC(=O)[C@H](CC(=O)O)NC(=O)CNC(=O)[C@H](CCCNC(=N)N)NC(=O)CNC1=O
In the data set with αvβ3 integrin [2], B4 gave an IC50 of less than 1000 nM.

B5: LXW23 (peptide)
peptide: [dC]GRGD[dD][d(αMeV)][dC]-NH2
modifications: disulfide 1-8; N-terminus assumed
SMILES: CC(C)[C@@]1(C)NC(=O)[C@@H](CC(=O)O)NC(=O)[C@H](CC(=O)O)NC(=O)CNC(=O)[C@H](CCCNC(=N)N)NC(=O)CNC(=O)[C@H](N)CSSC[C@H](C(N)=O)NC1=O
As for B5, the IC50 with αvβ3 integrin [3] was greater than 10 µM.

B6: LXW39 (peptide)
peptide: CGRGD[dD][dAla(4-thiazolyl)]C-NH2
modifications: disulfide 1-8; N-terminus assumed
SMILES: N=C(N)NCCC[C@@H]1NC(=O)CNC(=O)[C@@H](N)CSSC[C@@H](C(N)=O)NC(=O)[C@@H](Cc2cscn2)NC(=O)[C@@H](CC(=O)O)NC(=O)[C@H](CC(=O)O)NC(=O)CNC1=O
notes: also called CGRGDd-DTha-C
B6: the IC50 in the data set with αvβ3 integrin [3] is greater than 10 µM.
In the case of {2‑methylthiazole‑4‑carbonyl}-[dC]GRGD[dD][dV][dC]-NH2 (disulfide 1-8) [LXW86], in the data set with αvβ3 integrin [2], the half-maximal inhibitory concentration (IC50) was less than 1000 nM.
In the data set with αvβ3 integrin [2], {2‑naphthoyl}-[dC]GRGD[dD][dV][dC]-NH2 (disulfide 1-8) [LXW89] showed an IC50 of less than 1000 nM.

B7: LXW57 (peptide)
peptide: {Ebes(3)}-[dC]GRGD[dD][dV][dC]-NH2
modifications: disulfide 1-8
SMILES: CC(C)[C@H]1NC(=O)[C@@H](CC(=O)O)NC(=O)[C@H](CC(=O)O)NC(=O)CNC(=O)[C@H](CCCNC(=N)N)NC(=O)CNC(=O)[C@H](NC(=O)CCC(=O)NCCOCCOCCN)CSSC[C@H](C(N)=O)NC1=O
Turning to B7, the IC50 in the data set with αvβ3 integrin [2] was less than 1000 nM.

B8: LXW70 (peptide)
peptide: [dC]GRGD[dCit][Pro(5R-Ph)][dC]-NH2
modifications: disulfide 1-8; N-terminus assumed
SMILES: N=C(N)NCCC[C@@H]1NC(=O)CNC(=O)[C@H](N)CSSC[C@H](C(N)=O)NC(=O)[C@@H]2CC[C@H](c3ccccc3)N2C(=O)[C@@H](CCCNC(N)=O)NC(=O)[C@H](CC(=O)O)NC(=O)CNC1=O
Regarding B8, in the data set with αvβ3 integrin [3], the half-inhibitory concentration (IC50) is greater than 10 µM.
Molecule {3‑amino propanoyl}-[dC]GRGD[dD][dV][dC]-NH2 (disulfide 1-8) [LXW56] gave an IC50 with αvβ3 integrin [2] of less than 1000 nM.
